The target in assay [1] is T1, human NKG2D expressed on cells (primary human NK cells); EL4 mouse lymphoma cell lines engineered to express … (human, UniProt P26718 1-216).
T1 construct: whole, on cells; also called NKG2D expressed on EL4 cells; NKG2D on primary human NK cells
T1 sequence (looked up): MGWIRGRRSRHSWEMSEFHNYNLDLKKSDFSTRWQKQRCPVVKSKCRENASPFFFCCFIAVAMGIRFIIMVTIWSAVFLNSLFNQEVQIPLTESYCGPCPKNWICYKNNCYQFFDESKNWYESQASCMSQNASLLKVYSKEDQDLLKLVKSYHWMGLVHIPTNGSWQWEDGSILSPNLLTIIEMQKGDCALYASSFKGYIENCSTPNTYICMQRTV
As to the kind of experiment: flow cytometry on primary human NK cells. Here is the method:
Primary human NK cells and EL4 mouse lymphoma cell lines engineered to express human NKG2D were used to test binding affinity of trispecific binding proteins (TriNKETs) to NKG2D. Each of the TriNKETs tested contains an NKG2D-binding domain, a tumor-associated antigen binding domain (e.g., a 5T4-binding domain), and an Fc domain that binds to CD16 as shown in FIG. 1. TriNKETs were diluted to 20 μg/mL, and then diluted serially. The binding of the TriNKETs or the parental anti-5T4 monoclonal antibodies to NKG2D were detected using fluorophore-conjugated anti-human IgG secondary antibodies. Cells were analyzed by flow cytometry, and fold-over-background (FOB) was calculated by normalizing the mean fluorescence intensity (MFI) to human recombinant IgG1 staining control.
(In general: Flow cytometry measures light scatter and fluorescence of single cells or particles in a stream.)

For assay [2], the target named is T2, 5T4 expressed on human cancer cell lines (human, UniProt Q13641 32-420).
T2 construct: the assays used endogenous 5T4 on BxPC3, H146, H1975, HCT116, MCF7 and N87 cells; also called tumor-associated 5T4 antigen; human trophoblast glycoprotein 5T4
T2 sequence: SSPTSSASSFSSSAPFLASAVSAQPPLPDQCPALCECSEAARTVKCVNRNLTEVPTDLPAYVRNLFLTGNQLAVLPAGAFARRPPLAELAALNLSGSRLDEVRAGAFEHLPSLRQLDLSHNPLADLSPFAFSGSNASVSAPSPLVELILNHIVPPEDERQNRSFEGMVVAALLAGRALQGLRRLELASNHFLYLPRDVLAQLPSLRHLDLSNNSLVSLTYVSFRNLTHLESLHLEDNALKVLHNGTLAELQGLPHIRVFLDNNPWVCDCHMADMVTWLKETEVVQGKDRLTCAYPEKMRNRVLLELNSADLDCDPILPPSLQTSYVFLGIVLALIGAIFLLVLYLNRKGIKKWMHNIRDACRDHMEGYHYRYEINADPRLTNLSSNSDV
As to the kind of experiment: flow cytometry on 5T4-expressing human cancer cell lines. Here is the method: (§1) Human cancer cell lines (BxPC3, H146, H1975, HCT116, MCF7 and N87) expressing the tumor-associated 5T4 antigen were used to assay the binding of 5T4-targeting TriNKETs to the antigen. In separate experiments, the TriNKETs or the parental anti-5T4 monoclonal antibodies were incubated with the each of the cell lines, and the binding of the TriNKETs or anti-5T4 monoclonal antibodies to the cells was detected using fluorophore-conjugated anti-human IgG secondary antibodies. Flow cytometry was used to analyze the binding of the TriNKETs or anti-5T4 monoclonal antibodies to the cells, and fold-over-background (FOB) was calculated by normalizing the mean fluorescence intensity (MFI) to human recombinant IgG1 staining control.

For assay [3], the target named is T2, 5T4 expressed on human cancer cell lines. The assay can be described thus: flow cytometry on BxPC3 cells. Here is the method: as §1

B1: anti-5T4 monoclonal antibody 5T4R (antibody, V domains shown)
VH: EVHLLESGGGLVHPGGSLRLSCAASGFTFRSDAMHWVRQAPGKGLEWVSGVSGSGGSPYYADSVKGRFTISRDDSKTTLYLQMNSLRAEDTAVYYCATGGSIAGSYYYYPMDVWGQGTTVTVSS
VL: DIQMTQSPSSLSASVGDRVTITCQASQDISNYLNWYQQKPGKAPKLLIYAASTLQIGVPSRFSGSGSGTDFTFTISSLQPEDFATYYCQQANSFPLTFGGGTKVEIK
notes: detected with anti-human IgG secondary antibody; also called parental anti-5T4R monoclonal antibody; 5T4 monoclonal antibody (mAb)
In the case of B1, the binding result in assay [1] is recorded as “no binding”; in assay [2], “binds”.

B2: anti-5T4 monoclonal antibody 5T4A (antibody, V domains shown)
VH: EVQLVESGGGLVQPGGSLRLSCAASGFTFSNYWMNWVRQAPGKGLEWVGEIRLKSDKYATYYAESVKGRFTISRDDSKNSLYLQMNNLKTEDTGVYYCARRRGYYGSAYGMDYWGQGTLVTVSS
VL: DIQMTQSPSSLSASVGDRVTITCKASQDINSYLSWFQQKPGKAPKILIYRANRLVDGVPSRFSGSGSGKDFTFTISSLQPEDIATYYCLQYDFLPLTFGGGTKVEIK
notes: detected with anti-human IgG secondary antibody; also called 5T4 monoclonal antibody (mAb)
With B2, the binding result in assay [1] was “no binding”; in assay [3], “binds”.

The values above are taken from patent US20200157226A1 (DRAGONFLY THERAPEUTICS, published 2020).
